Test results published in paper PMC11606422, “MdWRKY31‐MdNAC7 regulatory network: orchestrating fruit softening by modulating cell wall‐modifying enzyme MdXTH2 in response to ethylene signalling”.

Biological target: T1, MdNAC7 (Malus domestica, UniProt D9ZJA6 1-263)
T1 sequence: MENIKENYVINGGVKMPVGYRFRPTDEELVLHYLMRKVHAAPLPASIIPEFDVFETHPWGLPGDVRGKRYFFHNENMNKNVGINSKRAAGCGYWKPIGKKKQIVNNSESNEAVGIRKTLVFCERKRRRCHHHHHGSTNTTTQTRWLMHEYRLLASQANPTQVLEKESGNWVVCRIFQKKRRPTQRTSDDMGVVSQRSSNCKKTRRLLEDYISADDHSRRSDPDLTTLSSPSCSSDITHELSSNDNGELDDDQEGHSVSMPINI
Assay: EMSA; LightShift Chemiluminescent EMSA kit, 10 uL, room temperature 30 min, 6% polyacrylamide gel in 0.5x TBE; salt and pH not stated
Conditions: protein: recombinant; chain copies: 2; label: biotin

B1: MdXTH2 promoter probe for MdNAC7 (dsDNA)
DNA 1: GTAGTACACCATGTGTTATTAT
DNA 2: ATAATAACACATGGTGTACTAC
B1: no binding.
